# T1: Human heart chymase (Homo sapiens, UniProt P23946)
# T1 construct: Human heart chymase was purified according to the method of Urata et al; from tissue; host or cells: human heart
# T1 sequence (P23946 22-247): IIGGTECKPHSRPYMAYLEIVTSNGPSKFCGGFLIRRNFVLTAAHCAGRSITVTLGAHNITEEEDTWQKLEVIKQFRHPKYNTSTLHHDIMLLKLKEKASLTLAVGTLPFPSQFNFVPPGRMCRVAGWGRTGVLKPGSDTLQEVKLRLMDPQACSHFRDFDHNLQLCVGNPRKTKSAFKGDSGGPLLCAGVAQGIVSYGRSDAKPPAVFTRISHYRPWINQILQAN
# What was measured:
# Human heart chymase = target: T1, Human heart chymase; experiment: Measurement of chymase inhibitory activity; assay type: biochemical; settings: purified human heart chymase, substrate Suc-Ala-Ala-Pro-Phe-MCA, 30° C.
# Description: Human heart chymase was purified according to the method of Urata et al. (J. Biol. Chem., 1990, 265, 22348). The inhibitory activity of the quinazoline derivatives of the present invention with respect to chymase was measured in the following manner. That is, the purified enzyme solution was diluted to a suitable concentration with 0.1M tris-hydrochloride buffer (pH=7.5), 1M sodium chloride, and 0.01% TritonX-100 to obtain an enzyme solution. A 10 mM dimethyl sulfoxide (hereinafter referred to as DMSO) solution of Suc-Ala-Ala-Pro-Phe-MCA (Peptide Institute) was diluted 20-fold at the time of use by 0.1M tris-hydrochlorate, 1M sodium chloride, and 0.01% TritonX-100 to obtain the substrate solution.
# 75 μl of the enzyme solution warmed to 30° C. was mixed with 5 μl of DMSO solution of the test sample. The mixture was preincubated at 30° C. for 10 minutes. Next, 20 μl of a substrate solution warmed to 30° C. was mixed with the test sample-enzyme mixture and incubated at 30° C. After 10 minutes, 50 μl of 30% acetic acid was added to stop the enzymatic reaction. The amount of the AMC produced was quantified using a fluorescent photometer. At the same time, a blind test was carried out by adding, instead of the test sample solution, 5 μl of DMSO and performing the same reaction. […]
# [1] = system: human polymorphonuclear leukocytes (PMN); experiment: Human chymase-induced migration of polymorphonuclear leukocytes, 48-well chemotaxis chamber; assay type: cell-based
# Description: In Example 6, it was shown that a remarkable infiltration of leukocytes is observed in late-phase reaction of human chymase-induced dermatitis. The effect of human chymase on the migration of polymorphonuclear leukocytes (PMN) in vitro was investigated for the purpose of investigating the mechanism of chymase-induced leukocyte infiltration. PMN was isolated by adding a ⅕th volume of 6% dextran solution to heparinized whole blood from normal healthy subject and allowing it to stand at 37° C. for 1 hour, then layering the supernatent on Ficoll-Paque (Amersham Pharmacia Biotech) and centrifuging it. Further, the migration of PMN was measured by using a 48-well chemotaxis chamber (NeuroProbe Co.) by the textbook method (Seibutsu Yakkagaku Jikken Koza (Biopharmacology Experiment Lectures) 12, 315, Hirokawa Shoten). That is, a medium containing human chymase (200 to 800 nM) or fMLP (N-formyl-L-methionyl-L-leucyl-L-phenylalanine, Sigma-Aldrich Co.) (10 nM) was placed in the lower well of the chamber. The upper well and the lower well were separated by a polycarbonate filter (pore size 5 μm) (NeuroProbe Co.) PMN (1×10^6/ml) was added to the upper well and cultured at 37° C. for 1 hour, then the filter was fixed, stained and the number of cells in the membrane were counted under a microscope (400×) (Seibutsu Yakkagaku Jikken Koza (Biopharmacology Experiment Lectures) 12, 315). For the cell staining, a hemacolor solution (Merck) was used. In this test, when investigating the effect of the chymase inhibitor, a chymase inhibitor (Compound 18 or Compound 34) was dissolved in dimethyl sulfoxide and added to the lower well of the chamber just before the addition of the human chymase. The concentration of the compound was adjusted so that the final concentration of the dimethyl sulfoxide became 1%.
# eosinophils of the skin = experiment: Administration of human chymase to mouse ears, number of eosinophils of skin; assay type: in vivo, mice; settings: p<0.01
# Description: The effect of a chymase inhibitor on the infiltration of eosinophils of the skin in the test of Example 10 was studied. That is, 48 hours after the sixth application of hapten, the ears of the mice were fixed with formalin and paraffin sections prepared in accordance with an ordinary method. The sections were stained with Fast Green (Fluka), known to specifically stain eosinophils (Current Protocol in Immunology, Wiley Interscience). That is, the deparaffined sections were fixed with 100% methanol for 1 minute, then stained for 30 minutes by 0.2% Fast Green dissolved in 70% ethanol. The eosinophils were measured by randomly selecting 10 fields (×400) under a microscope and counting the number of cells per area using an ocular grid. As the chymase inhibitor, the Compound 18 and Compound 34 were used and =administered by the method described in Example 10. […] The thickness of the ear was measured by a micrometer (Digimatic Indicator, Mitsutoyo Co.) immediately before each administration of chymase and 1 hour, 6 hours, 24 hours, and 48 hours after the administration to find the increase from the ear thickness before the first administration of chymase. […] The number of eosinophils of the skin was measured by the method described in Example 11. […]
IC50 (Human heart chymase),migration-promoting activity relative to fMLP ([1]; 200 to 400 nM chymase equals 10 nM fMLP),"concentration at which promotion of human PMN migration is statistically significant ([1]; chymase 200 to 800 nM in lower well, p<0.05 Dunnett's test)",increase in number of eosinophils compared with ear administered saline (eosinophils of the skin; 24 hours after single intradermal administration of 2.0 μg),"increase in number of eosinophils compared with group administered saline (eosinophils of the skin; administered at 1 week intervals four times in total, 1 week after administration)",Molecule
300 nM,–,–,–,–,"CC(C(=O)O)C(=O)Nc1cccc(S(=O)(=O)n2c(=O)[nH]c3cc(Cl)ccc3c2=O)c1 (centres unmarked) [Compound 13, 2-{3-[(7-chloro-2,4(1H, 3H) -quinazolinedion-3-yl)sulfonyl]phenylaminocarbonyl}propionic Acid]"
–,about 1/30,≥ 400 nM,approximately 7.6 fold,about 21 fold,"human chymase: recombinant human mature chymase expressed in CHO dhfr- cells, purified; serine protease of mast cells (protein, UniProt P23946 22-247, looked up) Chymase: IIGGTECKPHSRPYMAYLEIVTSNGPSKFCGGFLIRRNFVLTAAHCAGRSITVTLGAHNITEEEDTWQKLEVIKQFRHPKYNTSTLHHDIMLLKLKEKASLTLAVGTLPFPSQFNFVPPGRMCRVAGWGRTGVLKPGSDTLQEVKLRLMDPQACSHFRDFDHNLQLCVGNPRKTKSAFKGDSGGPLLCAGVAQGIVSYGRSDAKPPAVFTRISHYRPWINQILQAN"

# From patent US7618977B2, “Method of treating dermatitis comprising administering a chymase inhibitor” (Asubio Pharma Co., Ltd., priority 2000, dated 2009)
